From patent US20090011988A1 (Genentech, published 2009) come the findings set out here.

Positions of bridges follow the written chain, without caps; N, C: chain ends. No end group written: not given here. Bounds are passed on as bounds.

The target in test [1] is T1, human IGFBP-1 (human, UniProt P08833 26-259).
T1 sequence (looked up): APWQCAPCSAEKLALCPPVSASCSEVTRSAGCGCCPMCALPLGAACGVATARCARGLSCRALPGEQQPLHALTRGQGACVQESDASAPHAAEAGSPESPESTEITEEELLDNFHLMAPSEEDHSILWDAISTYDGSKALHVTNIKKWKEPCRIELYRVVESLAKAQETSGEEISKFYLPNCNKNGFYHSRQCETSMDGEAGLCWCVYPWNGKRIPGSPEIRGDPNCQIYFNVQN
Put plainly: competitive phage ELISA, value as restated in Table XIV (Table XIII prints 7.0 for the same pair). Background: In an ELISA, binding on a coated surface is turned into a signal by an enzyme label.

Test [2] addresses T1, human IGFBP-1. Put plainly: competitive phage ELISA. As for the experimental part: E. coli cells (XL1-Blue, Stratagene) freshly transformed with phagemid vector were grown overnight in 5 mL 2YT medium (Sambrook et al., supra) in the presence of M13-VCS helper phage (Stratagene). Phage particles were harvested and resuspended in PBS buffer as described in Lowman, H. B., “Phage Display of Peptide Libraries on Protein Scaffolds,” in Cabilly, S. (ed.), Combinatorial Peptide Library Protocols (Humana Press Inc.: Totowa, N.J., 1998), pp. 249-264. Then phage concentrations were normalized to yield a maximal ELISA signal of 0.2-0.4 for each mutant (Lowman, in Cabilly, S. (ed.), supra). Threefold serial dilutions of soluble competitor were prepared on non-absorbent microtiter plates (Nunc, F, 96 wells) with binding buffer (0.5% TWEEN 20%/PBS) containing phage at the previously determined concentrations. […] After blocking, the plates containing immobilized target were washed with 0.05% TWEEN™/PBS buffer and subsequently incubated with 80 μl/well of the premixed phage-competitor solutions for 1 hour at room temperature. […] IC₅₀ values were determined by fitting the binding data to a generic saturation curve (Lowman, in Cabilly, S. (ed.), supra). At least two individual clones of each IGF-1 mutant were assayed. Numbers in Table XIII represent mean±standard deviation of individually assessed IC₅₀ values.

The target in test [3] is T1, human IGFBP-1. Put plainly: BIAcore inhibition assay; reference.
For test [4], the target named is T1, human IGFBP-1. Put plainly: BIAcore inhibition assay. Here is the method:
Peptides were assayed in a BIAcore™ assay as described in WO 98/45427, supra.

The target in test [5] is T1, human IGFBP-1. Put plainly: BIAcore inhibition assay. The source holds these as a separate data set. In general terms: Surface plasmon resonance follows binding to a sensor surface in real time, without labels.
Test [6] addresses T1, human IGFBP-1. Put plainly: BIAcore inhibition, 9-10 nM IGFBP-1 to immobilized IGF-1.
Test [7] deals with T1, human IGFBP-1. Put plainly: inhibition assays.
For test [8], the target named is T1, human IGFBP-1. Put plainly: BIAcore kinetics, IGFBP-1 coupled to chip. Here is the method:
For each dilution of peptides, a global fit of the sensorgram data was performed using a 1:1 Langmuir binding model.

Take “IGF-1 F16A displayed on phage (from UniProt P69168 267-424) (ligand)”: the relative IC50 (mut/G1S-A70V) in test [1] was determined as 6; in test [2] it was 7.

Turning to CRAGPLQWLCEKYFG (disulfide 1-10) [BP1-01], in test [3], the “fold potency reduction, IC50 (BP1-01)/IC50 (mut)” value is 1.

Take Ac-LEWLAEKYEG (linker 2-9 via 1,5‑diaminopentane) [(i+7)B]: the “fold potency reduction, IC50 (BP1-01)/IC50 (mut)” value in test [4] is above 360. For the same molecule, the binding result in test [5] is “no binding (tested: >360-fold weaker than BP1-01)”.

In the case of GQQSCAAGPLQWLCEHYFSTYGR (not fully specified (bridges); cysteine pairing not given here) [BP1-625], the “fold improved potency over BP1-01” value in test [6] is around 20 fold.

Consider EARVCRAGPLQWLCEKYFSTY (disulfide 5-14) [BP1-25], for which the “fold affinity improvement over BP1-16” value in test [7] is around 20 fold. This molecule also yielded a Kd in test [8] of 42 nM.

As a reminder, the Kd is the free concentration of one partner at which half of the binding sites on the other are occupied at equilibrium, for simple one-to-one binding. The low end stands for a tighter complex, the high end for a looser complex.
